In publication PMC3596254 one finds percent decrease of the co-precipitate against wild type data, which are given here for 2 substances.

For this assay, the target named is GFP-tagged T759A mutant DIAPH1 (murine pEGFP-mDia T751A) (murine) (UniProt O08808). The assay is described as follows: co-IP.
Chain of UniProt O08808 (O08808 whole entry T751A): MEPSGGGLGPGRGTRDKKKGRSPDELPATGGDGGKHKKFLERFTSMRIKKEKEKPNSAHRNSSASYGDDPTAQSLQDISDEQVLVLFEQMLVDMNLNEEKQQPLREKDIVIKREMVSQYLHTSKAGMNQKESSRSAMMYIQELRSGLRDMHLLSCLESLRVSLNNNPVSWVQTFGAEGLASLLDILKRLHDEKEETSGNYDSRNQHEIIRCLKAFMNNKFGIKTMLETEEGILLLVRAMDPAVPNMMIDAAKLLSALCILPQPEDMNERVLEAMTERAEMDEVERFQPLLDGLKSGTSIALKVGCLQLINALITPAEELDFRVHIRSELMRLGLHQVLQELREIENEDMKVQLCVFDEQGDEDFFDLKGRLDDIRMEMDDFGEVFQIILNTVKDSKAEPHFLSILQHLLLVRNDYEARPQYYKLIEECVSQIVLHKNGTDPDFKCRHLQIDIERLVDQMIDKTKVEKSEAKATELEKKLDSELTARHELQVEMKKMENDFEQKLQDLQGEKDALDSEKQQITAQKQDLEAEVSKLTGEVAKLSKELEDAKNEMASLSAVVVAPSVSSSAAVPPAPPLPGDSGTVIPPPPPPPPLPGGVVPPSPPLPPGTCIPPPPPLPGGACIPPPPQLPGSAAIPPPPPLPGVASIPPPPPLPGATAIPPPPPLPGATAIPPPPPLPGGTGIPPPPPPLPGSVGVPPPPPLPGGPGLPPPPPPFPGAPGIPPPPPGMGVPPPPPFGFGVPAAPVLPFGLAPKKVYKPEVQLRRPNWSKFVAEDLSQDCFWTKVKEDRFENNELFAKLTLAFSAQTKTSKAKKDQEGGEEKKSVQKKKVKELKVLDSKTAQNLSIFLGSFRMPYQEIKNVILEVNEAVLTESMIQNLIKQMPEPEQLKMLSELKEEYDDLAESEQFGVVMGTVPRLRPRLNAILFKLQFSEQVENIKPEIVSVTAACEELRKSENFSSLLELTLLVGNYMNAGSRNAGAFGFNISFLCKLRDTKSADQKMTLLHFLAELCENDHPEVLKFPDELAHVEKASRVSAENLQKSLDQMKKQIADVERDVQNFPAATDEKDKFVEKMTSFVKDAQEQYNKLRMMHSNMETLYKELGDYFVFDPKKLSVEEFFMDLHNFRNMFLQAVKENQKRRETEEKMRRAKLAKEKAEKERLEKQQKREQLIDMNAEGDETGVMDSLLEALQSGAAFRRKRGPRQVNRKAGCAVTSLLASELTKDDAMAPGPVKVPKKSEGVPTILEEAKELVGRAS

The substance “Actin, β (from UniProt P60709 1-375) (natural protein)” returned a percent decrease of the co-precipitate against wild type of 86%.

With “Kinesin heavy chain (from UniProt P33176 1-963) (natural protein)”, the percent decrease of the co-precipitate against wild type was found to be 65%.
